Results on one molecule are retold here after patent US20020031818A1 (published 2002).

The experiment addresses GST-Mdm2, wild type, bacterially expressed and purified (pGEX-4T-1) (human, UniProt Q00987 1-491). Nature of the experiment: cell-based or functional assay.

Sequence of GST-Mdm2, wild type, bacterially expressed and purified (pGEX-4T-1) (Q00987 whole entry): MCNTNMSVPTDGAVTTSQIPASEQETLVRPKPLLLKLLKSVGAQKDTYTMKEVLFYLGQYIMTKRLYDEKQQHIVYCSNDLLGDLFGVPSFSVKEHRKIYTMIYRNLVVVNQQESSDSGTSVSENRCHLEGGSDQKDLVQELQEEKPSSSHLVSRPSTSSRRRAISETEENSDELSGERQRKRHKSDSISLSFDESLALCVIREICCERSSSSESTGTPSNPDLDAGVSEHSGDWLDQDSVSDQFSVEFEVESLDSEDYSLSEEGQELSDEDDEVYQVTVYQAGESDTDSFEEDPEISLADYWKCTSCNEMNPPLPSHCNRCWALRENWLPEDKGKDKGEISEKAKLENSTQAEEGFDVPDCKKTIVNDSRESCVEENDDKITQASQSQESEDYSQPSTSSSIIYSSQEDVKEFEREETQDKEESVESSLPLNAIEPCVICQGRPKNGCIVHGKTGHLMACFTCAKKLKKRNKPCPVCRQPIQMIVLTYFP

B1: p19^ARF, wild type (other, UniProt Q64364 1-169, looked up)
chain: MGRRFLVTVRIQRAGRPLQERVFLVKFVRSRRPRTASCALAFVNMLLRLERILRRGPHRNPGPGDDDGQRSRSSSSAQLRCRFELRGPHYLLPPGARRSAGRLPGHAGGAARVRGSAGCARCLGSPAARLGPRAGTSRHRAIFAFRWVLFVFRWVVFVYRWERRPDRRA
In the case of B1, the “molar ratio required for inhibition of Mdm2 sumoylation” value was ~1 molar ratio p19^ARF:Mdm2.
